This data set has as its system Escherichia coli TOP10. The data set is described as follows: shrunken log2 fold change of peptide-encoding DNA abundance (4.5 h post-induction vs induction); higher = less antimicrobial activity (less host growth inhibition). The conditions noted are these: time post-induction: 4.5 h; library: site-saturation at positions 5, 18, 19, 20.
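Also: peptides expressed intracellularly from a pBAD plasmid library in pooled LB shake-flask culture, induced with 0.3% L-arabinose, DNA abundance read by NGS, three biological replicates, DESeq2 with apeglm shrinkage.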

With RRIRARPPRLPRPRPRPLQVPRP, the “shrunken log2 fold change” value was determined as 0.151.
Next, RRIRFRPPRLPRPRPRPCWIPRP: -0.354.
Next, RRIRFRPPRLPRPRPRPYLDPRP: -0.26; RRIRRRPPRLPRPRPRPRIPPRP: 0.209; RRIRPRPPRLPRPRPRPNSIPRP: -0.254.
Next, RRIRQRPPRLPRPRPRPTPFPRP: 0.296; RRIRHRPPRLPRPRPRPMPDPRP: -0.276; RRIRHRPPRLPRPRPRPTPQPRP: 0.541.
As for RRIRCRPPRLPRPRPRPDVVPRP, the “shrunken log2 fold change” value is -0.00174.
Regarding RRIRSRPPRLPRPRPRPGQEPRP, the “shrunken log2 fold change” value was -0.0151.
Turning to RRIRKRPPRLPRPRPRPHTVPRP, the “shrunken log2 fold change” value was -0.407.
The value for RRIRVRPPRLPRPRPRPIKAPRP was 0.0466.
Take RRIRYRPPRLPRPRPRPRLWPRP: the “shrunken log2 fold change” value amounted to 0.14.
The value for RRIRPRPPRLPRPRPRPPHGPRP was 0.374.
The value for RRIRGRPPRLPRPRPRPHWEPRP was 0.324; that for RRIRVRPPRLPRPRPRPNAMPRP was -0.234.
Take RRIRARPPRLPRPRPRPMYKPRP: the “shrunken log2 fold change” value is -0.189.
On to RRIRQRPPRLPRPRPRPFAMPRP, for which the “shrunken log2 fold change” value is -0.132.
The value for RRIRHRPPRLPRPRPRPPDVPRP was 0.113; that for RRIRHRPPRLPRPRPRPEGQPRP was -0.0936; that for RRIRWRPPRLPRPRPRPWVAPRP was 0.191.
For the sequence RRIRLRPPRLPRPRPRPNQVPRP, the “shrunken log2 fold change” value was -0.294.
RRIRDRPPRLPRPRPRPWPMPRP: the “shrunken log2 fold change” value was -0.0379.
In the case of RRIRIRPPRLPRPRPRPLECPRP, the “shrunken log2 fold change” value is 0.0303.
RRIRMRPPRLPRPRPRPETPPRP: the “shrunken log2 fold change” value stood at 3.09.
RRIRMRPPRLPRPRPRPWAMPRP: the “shrunken log2 fold change” value amounted to 0.0684.
The value for RRIRKRPPRLPRPRPRPVWMPRP was 0.136; that for RRIRNRPPRLPRPRPRPFDQPRP was -0.0155; that for RRIRRRPPRLPRPRPRPHFLPRP was -0.196.
The value for RRIRYRPPRLPRPRPRPCGDPRP was -0.0424; that for RRIRTRPPRLPRPRPRPIKPPRP was -0.0369.
With RRIRGRPPRLPRPRPRPRSVPRP, the “shrunken log2 fold change” value is 0.662.
With RRIRRRPPRLPRPRPRPFPTPRP, the “shrunken log2 fold change” value is 0.164.
RRIRTRPPRLPRPRPRPISLPRP: the “shrunken log2 fold change” value is -0.0795.
Consider RRIRKRPPRLPRPRPRPYVGPRP, for which the “shrunken log2 fold change” value is -0.0717.
Regarding RRIRFRPPRLPRPRPRPFALPRP, the “shrunken log2 fold change” value was -0.00558.
Consider RRIRIRPPRLPRPRPRPFQGPRP, for which the “shrunken log2 fold change” value worked out at 0.0801.
Turning to RRIRYRPPRLPRPRPRPFTMPRP, the “shrunken log2 fold change” value is -0.558.
The value for RRIRRRPPRLPRPRPRPSVCPRP was 0.0243.
Next, RRIRDRPPRLPRPRPRPWFMPRP: 0.0254.
RRIRWRPPRLPRPRPRPSWFPRP: the “shrunken log2 fold change” value was -0.0343.
As for RRIRGRPPRLPRPRPRPPHEPRP, the “shrunken log2 fold change” value is 0.773.
With RRIRIRPPRLPRPRPRPMLTPRP, the “shrunken log2 fold change” value is -0.00363.
Next, RRIRLRPPRLPRPRPRPNYWPRP: -0.0686; RRIRKRPPRLPRPRPRPQPKPRP: 0.19; RRIRYRPPRLPRPRPRPALHPRP: 0.12.
The value for RRIRCRPPRLPRPRPRPTSWPRP was 0.0567.
RRIRHRPPRLPRPRPRPFYAPRP: the “shrunken log2 fold change” value is -0.724.
The value for RRIRWRPPRLPRPRPRPKTIPRP was 0.118; that for RRIRERPPRLPRPRPRPTDYPRP was -0.349.
Next, RRIRERPPRLPRPRPRPEGDPRP: 0.0441; RRIRGRPPRLPRPRPRPSKCPRP: -0.313; RRIRRRPPRLPRPRPRPLCVPRP: 0.537.
On to RRIRVRPPRLPRPRPRPQCRPRP, for which the “shrunken log2 fold change” value is -0.167.
For the sequence RRIRGRPPRLPRPRPRPKTTPRP, the “shrunken log2 fold change” value was 0.521.
For RRIRTRPPRLPRPRPRPICPPRP, the “shrunken log2 fold change” value is -0.0534.
Turning to RRIRHRPPRLPRPRPRPFDAPRP, the “shrunken log2 fold change” value worked out at 0.00493.
As for RRIRYRPPRLPRPRPRPILMPRP, the “shrunken log2 fold change” value is -0.0114.
The value for RRIRERPPRLPRPRPRPIMKPRP was -0.376.
Take RRIRCRPPRLPRPRPRPKKIPRP: the “shrunken log2 fold change” value was determined as 0.00547.
The value for RRIRGRPPRLPRPRPRPFKLPRP was -0.167.
Take RRIRKRPPRLPRPRPRPDRPPRP: the “shrunken log2 fold change” value was found to be 0.0953.
Turning to RRIRSRPPRLPRPRPRPGHFPRP, the “shrunken log2 fold change” value is -0.0564.
For RRIRGRPPRLPRPRPRPERDPRP, the “shrunken log2 fold change” value came to 0.955.
Consider RRIRRRPPRLPRPRPRPDQFPRP, for which the “shrunken log2 fold change” value is -0.0176.
On to RRIRARPPRLPRPRPRPSNLPRP, for which the “shrunken log2 fold change” value is -0.39.
Take RRIRGRPPRLPRPRPRPPQVPRP: the “shrunken log2 fold change” value was found to be 0.791.
As to RRIRPRPPRLPRPRPRPTTIPRP, the “shrunken log2 fold change” value is -0.223.
Regarding RRIRHRPPRLPRPRPRPVQHPRP, the “shrunken log2 fold change” value is -0.0639.
Consider RRIRPRPPRLPRPRPRPVDCPRP, for which the “shrunken log2 fold change” value amounted to 0.00936.
As for RRIRKRPPRLPRPRPRPPGNPRP, the “shrunken log2 fold change” value is 0.712.
For RRIRWRPPRLPRPRPRPKQSPRP, the “shrunken log2 fold change” value came to 0.698.
Next, RRIRTRPPRLPRPRPRPYVRPRP: 0.0143.
For RRIRHRPPRLPRPRPRPQSYPRP, the “shrunken log2 fold change” value was -0.175.
Next, RRIRPRPPRLPRPRPRPQIRPRP: -0.207.
Consider RRIRFRPPRLPRPRPRPMKQPRP, for which the “shrunken log2 fold change” value was -0.0442.
Next, RRIRYRPPRLPRPRPRPHKTPRP: -0.0572; RRIRVRPPRLPRPRPRPSSDPRP: -0.131; RRIRWRPPRLPRPRPRPVAWPRP: 0.489.
RRIRVRPPRLPRPRPRPNTTPRP: the “shrunken log2 fold change” value is -0.227.
As for RRIRGRPPRLPRPRPRPFHLPRP, the “shrunken log2 fold change” value was -0.391.
As to RRIRTRPPRLPRPRPRPRLSPRP, the “shrunken log2 fold change” value is -0.0634.
For the sequence RRIRNRPPRLPRPRPRPDLSPRP, the “shrunken log2 fold change” value was -0.0537.
The value for RRIRPRPPRLPRPRPRPNGPPRP was -0.027.
Turning to RRIRERPPRLPRPRPRPLSVPRP, the “shrunken log2 fold change” value was -0.642.
In the case of RRIRARPPRLPRPRPRPAVEPRP, the “shrunken log2 fold change” value was determined as 0.666.
Take RRIRTRPPRLPRPRPRPQINPRP: the “shrunken log2 fold change” value was -0.348.
For the sequence RRIRIRPPRLPRPRPRPPKAPRP, the “shrunken log2 fold change” value was -0.0729.
For the sequence RRIRSRPPRLPRPRPRPWMNPRP, the “shrunken log2 fold change” value was -0.267.
Next, RRIRIRPPRLPRPRPRPDSDPRP: -0.0273; RRIRDRPPRLPRPRPRPMMLPRP: -0.0234.
Next, RRIRQRPPRLPRPRPRPVNMPRP: 0.0206; RRIRNRPPRLPRPRPRPKEPPRP: 0.0169; RRIRNRPPRLPRPRPRPAHDPRP: 0.055.
On to RRIRDRPPRLPRPRPRPAPCPRP, for which the “shrunken log2 fold change” value came to 0.658.
On to RRIRCRPPRLPRPRPRPYSQPRP, for which the “shrunken log2 fold change” value is -0.781.
Regarding RRIRDRPPRLPRPRPRPQRNPRP, the “shrunken log2 fold change” value is -0.0378.
Turning to RRIRTRPPRLPRPRPRPVTWPRP, the “shrunken log2 fold change” value was -0.0681.
Take RRIRYRPPRLPRPRPRPNKFPRP: the “shrunken log2 fold change” value was -0.546.
As for RRIRDRPPRLPRPRPRPVNKPRP, the “shrunken log2 fold change” value is -0.0502.
Next, RRIRERPPRLPRPRPRPTVFPRP: 0.0505; RRIRIRPPRLPRPRPRPWYRPRP: -0.678; RRIRWRPPRLPRPRPRPPISPRP: 0.172.
As for RRIRRRPPRLPRPRPRPKKTPRP, the “shrunken log2 fold change” value is -0.0163.
With RRIRWRPPRLPRPRPRPANQPRP, the “shrunken log2 fold change” value worked out at 0.559.
Next, RRIRKRPPRLPRPRPRPYSEPRP: -0.269; RRIRSRPPRLPRPRPRPSNKPRP: -0.413.
The value for RRIRFRPPRLPRPRPRPEVFPRP was 0.181.
In the case of RRIRGRPPRLPRPRPRPADCPRP, the “shrunken log2 fold change” value was 0.349.
Take RRIRIRPPRLPRPRPRPMRMPRP: the “shrunken log2 fold change” value is 0.0697.
On to RRIRWRPPRLPRPRPRPFHAPRP, for which the “shrunken log2 fold change” value came to 0.0472.
With RRIRHRPPRLPRPRPRPPINPRP, the “shrunken log2 fold change” value is -0.294.
As to RRIRGRPPRLPRPRPRPDISPRP, the “shrunken log2 fold change” value is -0.0115.
With RRIRYRPPRLPRPRPRPLGAPRP, the “shrunken log2 fold change” value was -0.103.
For RRIRCRPPRLPRPRPRPDSPPRP, the “shrunken log2 fold change” value is -0.353.
The value for RRIRARPPRLPRPRPRPPRTPRP was 1.12; that for RRIRSRPPRLPRPRPRPDHLPRP was -0.0228; that for RRIRIRPPRLPRPRPRPMSHPRP was -0.0862.
RRIRRRPPRLPRPRPRPVIHPRP: the “shrunken log2 fold change” value is -0.0832.
Take RRIRGRPPRLPRPRPRPNENPRP: the “shrunken log2 fold change” value was determined as 0.931.
In the case of RRIRCRPPRLPRPRPRPSPHPRP, the “shrunken log2 fold change” value is -0.144.
Turning to RRIRQRPPRLPRPRPRPNATPRP, the “shrunken log2 fold change” value worked out at 0.251.
Turning to RRIRARPPRLPRPRPRPWLPPRP, the “shrunken log2 fold change” value is 0.197.
On to RRIRPRPPRLPRPRPRPVVGPRP, for which the “shrunken log2 fold change” value is 0.212.
The value for RRIRRRPPRLPRPRPRPFMCPRP was 0.0373.

The values are drawn from the supplement of paper PMC9112550, “Optimization of the antimicrobial peptide Bac7 by deep mutational scanning” (BMC Biology, 2022).
